Assay results published in patent US20240190983A1 (JULIUS MAXIMILIANS UNIVERSIT T W RZBURG, published 2024).

biological target: T1, Human TNFR2 (human, UniProt P20333 23-461); assay: cell-based or functional assay
T1 sequence: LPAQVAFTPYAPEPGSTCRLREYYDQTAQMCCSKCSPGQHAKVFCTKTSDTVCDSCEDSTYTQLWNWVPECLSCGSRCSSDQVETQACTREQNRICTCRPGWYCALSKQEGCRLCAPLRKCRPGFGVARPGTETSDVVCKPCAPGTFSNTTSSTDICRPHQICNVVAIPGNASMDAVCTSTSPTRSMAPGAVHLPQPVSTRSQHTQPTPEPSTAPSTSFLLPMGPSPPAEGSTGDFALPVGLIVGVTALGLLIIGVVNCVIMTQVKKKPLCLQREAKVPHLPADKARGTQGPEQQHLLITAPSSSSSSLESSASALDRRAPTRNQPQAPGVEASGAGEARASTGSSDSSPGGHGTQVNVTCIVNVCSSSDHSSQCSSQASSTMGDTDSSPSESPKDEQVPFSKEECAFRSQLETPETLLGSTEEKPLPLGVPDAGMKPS

| Activity I (IL8) [ng/mL] | Binder | Activity II (tox) [ng/mL] |
| --- | --- | --- |
| 0 | C4-Fab1 (Fab) light: MNFGFSLIFLVLVLKGVQCEVKLVPRQLDYKDDDDKELDIVMTQSHKFMSTSVGDRVSITCKASQDVDTAVAWYQQKPGQSPKLLIYWASTRHTGVPDRFTGSGSGTDYTLTISSVQAEDLARYYCQQYYSVPPTFGGGTKLGSEIKRTVAAPSVFIFPPSDEQLKSGTASVVCLLNNFYPREAKVQWKVDNALQSGNSQESVTEQDSKDSTYSLSSTLTLSKADYEKHKVYACEVTHQGLSSPVTKSFNRGEC heavy: MNFGFSLIFLVLVLKGVQCEVKLVPRQLDYKDDDDKELQVQLLQSGPELVKPGASVKLSCKASGYSFTSYDINWVKQRPGQGLEWVGWIYPRDGDTKYNEKFKGKAILTVDTSSNTAYMNLHSLTSEDSAVYFCARLTGPYWYFDVWGTGTTVTVSSGSSSASTKGPSVFPLAPSSKSTSGGTAALGCLVKDYFPEPVTVSWNSGALTSGVHTFPAVLQSSGLYSLSSVVTVPSSSLGTQTYICNVNHKPSNTKVDKKVEPKSCDKTHT | 0 |
| 0 | C4-Fab2 (antibody) light: MNFGFSLIFLVLVLKGVQCEVKLVPRQLDYKDDDDKELDIVMTQSHKFMSTSVGDRVSITCKASQDVDTAVAWYQQKPGQSPKLLIYWASTRHTGVPDRFTGSGSGTDYTLTISSVQAEDLARYYCQQYYSVPPTFGGGTKLGSEIKRTVAAPSVFIFPPSDEQLKSGTASVVCLLNNFYPREAKVQWKVDNALQSGNSQESVTEQDSKDSTYSLSSTLTLSKADYEKHKVYACEVTHQGLSSPVTKSFNRGEC heavy: MNFGFSLIFLVLVLKGVQCEVKLVPRQLQVQLLQSGPELVKPGASVKLSCKASGYSFTSYDINWVKQRPGQGLEWVGWIYPRDGDTKYNEKFKGKAILTVDTSSNTAYMNLHSLTSEDSAVYFCARLTGPYWYFDVWGTGTTVTVSSGSSSASTKGPSVFPLAPSSKSTSGGTAALGCLVKDYFPEPVTVSWNSGALTSGVHTFPAVLQSSGLYSLSSVVTVPSSSLGTQTYICNVNHKPSNTKVDKKVEPKSCDKTHTCPPCPA | 0 |
| 10 | C4-Fab1-LC:scFvC4 (antibody) light: MNFGFSLIFLVLVLKGVQCEVKLVPRQLDYKDDDDKELDIVMTQSHKFMSTSVGDRVSITCKASQDVDTAVAWYQQKPGQSPKLLIYWASTRHTGVPDRFTGSGSGTDYTLTISSVQAEDLARYYCQQYYSVPPTFGGGTKLGSEIKRTVAAPSVFIFPPSDEQLKSGTASVVCLLNNFYPREAKVQWKVDNALQSGNSQESVTEQDSKDSTYSLSSTLTLSKADYEKHKVYACEVTHQGLSSPVTKSFNRGECLEQVQLLQSGPELVKPGASVKLSCKASGYSFTSYDINWVKQRPGQGLEWVGWIYPRDGDTKYNEKFKGKAILTVDTSSNTAYMNLHSLTSEDSAVYFCARLTGPYWYFDVWGTGTTVTVSSRSSTKGPKLEEGEFSEAQLDIVMTQSHKFMSTSVGDRVSITCKASQDVDTAVAWYQQKPGQSPKLLIYWASTRHTGVPDRFTGSGSGTDYTLTISSVQAEDLARYYCQQYYSVPPTFGGGTKLEIK heavy: MNFGFSLIFLVLVLKGVQCEVKLVPRQLDYKDDDDKELQVQLLQSGPELVKPGASVKLSCKASGYSFTSYDINWVKQRPGQGLEWVGWIYPRDGDTKYNEKFKGKAILTVDTSSNTAYMNLHSLTSEDSAVYFCARLTGPYWYFDVWGTGTTVTVSSGSSSASTKGPSVFPLAPSSKSTSGGTAALGCLVKDYFPEPVTVSWNSGALTSGVHTFPAVLQSSGLYSLSSVVTVPSSSLGTQTYICNVNHKPSNTKVDKKVEPKSCDKTHT | 20 |
| 100 | C4-IgG1(N297A)-HC:TNC (antibody) light: MNFGFSLIFLVLVLKGVQCEVKLVPRQLDYKDDDDKELDIVMTQSHKFMSTSVGDRVSITCKASQDVDTAVAWYQQKPGQSPKLLIYWASTRHTGVPDRFTGSGSGTDYTLTISSVQAEDLARYYCQQYYSVPPTFGGGTKLGSEIKRTVAAPSVFIFPPSDEQLKSGTASVVCLLNNFYPREAKVQWKVDNALQSGNSQESVTEQDSKDSTYSLSSTLTLSKADYEKHKVYACEVTHQGLSSPVTKSFNRGEC heavy: not shown |  |

The next lines start with the binder.

| Binder | Activity I (IL8) [ng/mL] | Activity II (tox) [ng/mL] |
| --- | --- | --- |
| C4-IgG1(N297A) (antibody) light: MNFGFSLIFLVLVLKGVQCEVKLVPRQLDYKDDDDKELDIVMTQSHKFMSTSVGDRVSITCKASQDVDTAVAWYQQKPGQSPKLLIYWASTRHTGVPDRFTGSGSGTDYTLTISSVQAEDLARYYCQQYYSVPPTFGGGTKLGSEIKRTVAAPSVFIFPPSDEQLKSGTASVVCLLNNFYPREAKVQWKVDNALQSGNSQESVTEQDSKDSTYSLSSTLTLSKADYEKHKVYACEVTHQGLSSPVTKSFNRGEC heavy: not shown | 0 | 0 |
| C4(scFv)-IgG1(N297A) (antibody) light: MNFGFSLIFLVLVLKGVQCEVKLVPRQLDYKDDDDKEFQVQLLQSGPELVKPGASVKLSCKASGYSFTSYDINWVKQRPGQGLEWVGWIYPRDGDTKYNEKFKGKAILTVDTSSNTAYMNLHSLTSEDSAVYFCARLTGPYWYFDVWGTGTTVTVSSRSSTKGPKLEEGEFSEAQLDIVMTQSHKFMSTSVGDRVSITCKASQDVDTAVAWYQQKPGQSPKLLIYWASTRHTGVPDRFTGSGSGTDYTLTISSVQAEDLARYYCQQYYSVPPTFGGGTKLEIKGSEIKRTVAAPSVFIFPPSDEQLKSGTASVVCLLNNFYPREAKVQWKVDNALQSGNSQESVTEQDSKDSTYSLSSTLTLSKADYEKHKVYACEVTHQGLSSPVTKSFNRGEC heavy: not shown |  | 20 |
| C4(scFv)-IgG1(N297A)-HC:TNC (antibody) light: MNFGFSLIFLVLVLKGVQCEVKLVPRQLDYKDDDDKEFQVQLLQSGPELVKPGASVKLSCKASGYSFTSYDINWVKQRPGQGLEWVGWIYPRDGDTKYNEKFKGKAILTVDTSSNTAYMNLHSLTSEDSAVYFCARLTGPYWYFDVWGTGTTVTVSSRSSTKGPKLEEGEFSEAQLDIVMTQSHKFMSTSVGDRVSITCKASQDVDTAVAWYQQKPGQSPKLLIYWASTRHTGVPDRFTGSGSGTDYTLTISSVQAEDLARYYCQQYYSVPPTFGGGTKLEIKGSEIKRTVAAPSVFIFPPSDEQLKSGTASVVCLLNNFYPREAKVQWKVDNALQSGNSQESVTEQDSKDSTYSLSSTLTLSKADYEKHKVYACEVTHQGLSSPVTKSFNRGEC heavy: not shown |  | 10 |
| C4-Fab2-LC:scFvC4 (antibody) light: MNFGFSLIFLVLVLKGVQCEVKLVPRQLDYKDDDDKELDIVMTQSHKFMSTSVGDRVSITCKASQDVDTAVAWYQQKPGQSPKLLIYWASTRHTGVPDRFTGSGSGTDYTLTISSVQAEDLARYYCQQYYSVPPTFGGGTKLGSEIKRTVAAPSVFIFPPSDEQLKSGTASVVCLLNNFYPREAKVQWKVDNALQSGNSQESVTEQDSKDSTYSLSSTLTLSKADYEKHKVYACEVTHQGLSSPVTKSFNRGECLEQVQLLQSGPELVKPGASVKLSCKASGYSFTSYDINWVKQRPGQGLEWVGWIYPRDGDTKYNEKFKGKAILTVDTSSNTAYMNLHSLTSEDSAVYFCARLTGPYWYFDVWGTGTTVTVSSRSSTKGPKLEEGEFSEAQLDIVMTQSHKFMSTSVGDRVSITCKASQDVDTAVAWYQQKPGQSPKLLIYWASTRHTGVPDRFTGSGSGTDYTLTISSVQAEDLARYYCQQYYSVPPTFGGGTKLEIK heavy: MNFGFSLIFLVLVLKGVQCEVKLVPRQLQVQLLQSGPELVKPGASVKLSCKASGYSFTSYDINWVKQRPGQGLEWVGWIYPRDGDTKYNEKFKGKAILTVDTSSNTAYMNLHSLTSEDSAVYFCARLTGPYWYFDVWGTGTTVTVSSGSSSASTKGPSVFPLAPSSKSTSGGTAALGCLVKDYFPEPVTVSWNSGALTSGVHTFPAVLQSSGLYSLSSVVTVPSSSLGTQTYICNVNHKPSNTKVDKKVEPKSCDKTHTCPPCPA | 50 |  |

biological target: T1, Human TNFR2; assay: equilibrium binding of the GpL fusion protein to HeLa-TNFR2 cells, 37 °C; unspecific binding on HeLa cells subtracted; cell-bound luciferase
Protocol: FIG. 11—Binding properties of TNFR2-specific antibodies. (A) Equilibrium binding of the indicated anti-TNFR2 antibody GpL fusion proteins to cell expressed human TNFR2 at 37° C. (B) HeLa-TNFR2 cells were pretreated with the indicated amounts of anti-TNFR2 antibodies or remained untreated. […] Binding of the various constructs to untransfected HeLa cells was analyzed to obtain unspecific binding values.
Affinity of TNFR2-specific antibodies and antibody variants were also evaluated with HeLa cells and HeLa cells stably expressing human TNFR2. HeLa and HeLa-TNFR2 cells were seeded out in 24-well plates. Next day, the cells were challenged with the indicated concentrations of GpL-labelled TNFR2 antibodies for 1 hour at 37° C. To eliminate the unbound antibodies, the cells were washed 10 times with ice-cold PBS. The cells were then scratched and collected in 50 μl of medium (RPMI, 0.5% FCS) and transferred to black 96-well plates for measurement as mentioned above. The specific binding of different TNFR2-specific antibodies/antibody variants was calculated by subtracting the unspecific binding (values obtained from HeLa cells) from total binding (obtained from HeLa-TNFR2). The resulting values were fitted using the non-linear regression analysis option of GraphPad Prism 5.

| Bmax [kRLU] | Kd [µg/mL] | Binder |
| --- | --- | --- |
| 250 | 0.8 | C29-IgG1(N297A)-LC:GpL (antibody, copies: 2 + 2) light: EVKLVPRQLDYKDDDDKELDVVMTQTPLSLPVSLGDQASISCRASQSLVHSNGNTYLQWYLQKPGQSPKLLIYKVSNRFSGVPDRFSGSGSGTDFTLKISRVEAEDLGVFFCSQSTHVPFTFGSGTKLEIKGSEIKRTVAAPSVFIFPPSDEQLKSGTASVVCLLNNFYPREAKVQWKVDNALQSGNSQESVTEQDSKDSTYSLSSTLTLSKADYEKHKVYACEVTHQGLSSPVTKSFNRGECLEKPTENNEDFNIVAVASNFATTDLDADRGKLPGKKLPLEVLKEMEANARKAGCTRGCLICLSHIKCTPKMKKFIPGRCHTYEGDKESAQGGIGEAIVDIPEIPGFKDLEPMEQFIAQVDLCVDCTTGCLKGLANVQCSDLLKKWLPQRCATFASKIQGQVDKIKGAGGD heavy: not shown |
| 890 | 2.19 | C31-2-IgG1(N297A)-LC:GpL (antibody, copies: 2 + 2) light: EVKLVPRQLDYKDDDDKELQAVVTQESALTTSPGETVTLTCRSSTGAVTTSNYANWVQEKPDHLFTGLIGGTNNRAPGVPARFSGSVIGDKAALTITGAQTEDEAIYFCALWYSNHWVFGGGTKLTVLGGSEIKRTVAAPSVFIFPPSDEQLKSGTASVVCLLNNFYPREAKVQWKVDNALQSGNSQESVTEQDSKDSTYSLSSTLTLSKADYEKHKVYACEVTHQGLSSPVTKSFNRGECLEKPTENNEDFNIVAVASNFATTDLDADRGKLPGKKLPLEVLKEMEANARKAGCTRGCLICLSHIKCTPKMKKFIPGRCHTYEGDKESAQGGIGEAIVDIPEIPGFKDLEPMEQFIAQVDLCVDCTTGCLKGLANVQCSDLLKKWLPQRCATFASKIQGQVDKIKGAGGD heavy: not shown |
